Drawing on the supplement of paper PMC9428881, this text covers background-corrected fluorescence for 28 sequences.

± gives the standard error.

The nature of the data set: background-corrected fluorescence of 3'-dye-labeled ssDNA relative to brightest sequence (3'-GCGCG) (fraction); higher = brighter dye fluorescence (less quenching). Here is the method: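 Single-stranded DNA is synthesized in situ on glass microarrays by 5'->3' photolithographic synthesis, with a Cy3 or Cy5 phosphoramidite coupled at the 3' end next to all 1024 permuted pentamers P1-P5. The construct is 5'-T5-(ACGT minus P5..P1 trinucleotides)-T15-P5P4P3P2P1-dye-3'; the dye is a 3' terminal modification, not part of the sequence. Arrays were scanned at 532 nm (Cy3) or 635 nm (Cy5), background from unlabeled oligos was subtracted, and values are averaged over 10 replicate features per array and at least 3 independent syntheses.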

Take “TTTTTGCATGAGCATGATGATTTTTTTTTTTTTTTTCTCC [CCTCT]”: the background-corrected fluorescence was found to be 0.335 ± 0.042 (dye: Cy3 (3' terminal)) and 0.268 ± 0.019 (dye: Cy5 (3' terminal)).
On the same counts, the results for “TTTTTTGCTGCGCATGCTGCTTTTTTTTTTTTTTTAATAA” are 0.578 ± 0.031 and 0.446 ± 0.022.
“TTTTTTCATGCGCATGCTGATTTTTTTTTTTTTTTGATAC [CATAG]”: the background-corrected fluorescence was found to be 0.448 ± 0.026 (dye: Cy3 (3' terminal)) and 0.334 ± 0.024 (dye: Cy5 (3' terminal)).
Taken in the same sequence, the figures for “TTTTTGCAGCAGCATCAGCATTTTTTTTTTTTTTTTTTGT [TGTTT]” were 0.649 ± 0.02 and 0.46 ± 0.028.
Taken in the same sequence, the figures for “TTTTTTCAGCATGCTGAGCATTTTTTTTTTTTTTTGTACT [TCATG]” were 0.476 ± 0.0074 and 0.399 ± 0.025.
On the same counts, the results for “TTTTTGCATCATGATCATGATTTTTTTTTTTTTTTTGCGC [CGCGT]” are 0.596 ± 0.02 and 0.48 ± 0.034.
On to “TTTTTTCATCATCATCATCATTTTTTTTTTTTTTTGGGGG”, for which the background-corrected fluorescence stood at 0.709 ± 0.059 (dye: Cy3 (3' terminal)) and 0.635 ± 0.03 (dye: Cy5 (3' terminal)).
Taken in the same sequence, the figures for “TTTTTGCATCATGCTGAGCATTTTTTTTTTTTTTTTGACT [TCAGT]” were 0.473 ± 0.034 and 0.357 ± 0.022.
Turning to “TTTTTTGCTGATGATGAGCATTTTTTTTTTTTTTTACCCT [TCCCA]”, the background-corrected fluorescence by setting is: (dye: Cy3 (3' terminal)) 0.446 ± 0.023; (dye: Cy5 (3' terminal)) 0.34 ± 0.021.
For the sequence “TTTTTTGCTGCTGCTGCGCATTTTTTTTTTTTTTTAAAAT”, the background-corrected fluorescence reads like this: (dye: Cy3 (3' terminal)) 0.596 ± 0.022; (dye: Cy5 (3' terminal)) 0.462 ± 0.077.
Taken in the same sequence, the figures for “TTTTTTCATCAGCATGATCATTTTTTTTTTTTTTTGGTCG [GCTGG]” were 0.526 ± 0.035 and 0.405 ± 0.028.
On the same counts, the results for “TTTTTTGATCATGCGCAGCATTTTTTTTTTTTTTTCGATT [TTAGC]” are 0.602 ± 0.031 and 0.404 ± 0.025.
In turn, “TTTTTTGCTGAGCAGCATGATTTTTTTTTTTTTTTACTTC [CTTCA]” returned a background-corrected fluorescence (dye: Cy3 (3' terminal)) of 0.405 ± 0.022 and a background-corrected fluorescence (dye: Cy5 (3' terminal)) of 0.312 ± 0.027.
On the same counts, the results for “TTTTTTGCTCAGCAGCATCATTTTTTTTTTTTTTTAGTTG [GTTGA]” are 0.516 ± 0.037 and 0.408 ± 0.034.
On the same counts, the results for “TTTTTTGCGCAGCATCATCATTTTTTTTTTTTTTTATTGG [GGTTA]” are 0.549 ± 0.038 and 0.476 ± 0.055.
On the same counts, the results for “TTTTTGCATCATGATGAGCATTTTTTTTTTTTTTTTGCCT [TCCGT]” are 0.444 ± 0.011 and 0.356 ± 0.021.
Sequence “TTTTTTGCGCATGATGAGCATTTTTTTTTTTTTTTATCCT [TCCTA]” returned a background-corrected fluorescence (dye: Cy3 (3' terminal)) of 0.447 ± 0.015 and a background-corrected fluorescence (dye: Cy5 (3' terminal)) of 0.348 ± 0.02.
With “TTTTTGCATGATGCTCATGCTTTTTTTTTTTTTTTTCAGA [AGACT]”, the background-corrected fluorescence amounted to 0.615 ± 0.017 (dye: Cy3 (3' terminal)) and 0.531 ± 0.036 (dye: Cy5 (3' terminal)).
Taken in the same sequence, the figures for “TTTTTTGCGCATGAGCATGATTTTTTTTTTTTTTTATCTC [CTCTA]” were 0.41 ± 0.024 and 0.291 ± 0.02.
On the same counts, the results for “TTTTTTCATCATGATGATCATTTTTTTTTTTTTTTGGCCG [GCCGG]” are 0.597 ± 0.02 and 0.449 ± 0.043.
Taken in the same sequence, the figures for “TTTTTTCAGCAGCATGATGATTTTTTTTTTTTTTTGTTCC [CCTTG]” were 0.351 ± 0.018 and 0.275 ± 0.015.
Take “TTTTTGCATCATGAGCATCATTTTTTTTTTTTTTTTGCTG [GTCGT]”: the background-corrected fluorescence worked out at 0.463 ± 0.018 (dye: Cy3 (3' terminal)) and 0.358 ± 0.022 (dye: Cy5 (3' terminal)).
On the same counts, the results for “TTTTTTGCTGATCATCATGCTTTTTTTTTTTTTTTACGGA [AGGCA]” are 0.683 ± 0.03 and 0.588 ± 0.029.
On the same counts, the results for “TTTTTGCATGCTCATGCGCATTTTTTTTTTTTTTTTAGAT” are 0.569 ± 0.031 and 0.463 ± 0.02.
Take “TTTTTGCATGCTGATCATGATTTTTTTTTTTTTTTTACGC [CGCAT]”: the background-corrected fluorescence (dye: Cy3 (3' terminal)) is 0.523 ± 0.0065 and the background-corrected fluorescence (dye: Cy5 (3' terminal)) came out at 0.439 ± 0.032.
As for “TTTTTGCATGCTGCTCATGCTTTTTTTTTTTTTTTTAAGA [AGAAT]”, the background-corrected fluorescence is, setting by setting: (dye: Cy3 (3' terminal)) 0.649 ± 0.011; (dye: Cy5 (3' terminal)) 0.589 ± 0.024.
For the sequence “TTTTTGCAGCAGCATCATCATTTTTTTTTTTTTTTTTTGG [GGTTT]”, the background-corrected fluorescence (dye: Cy3 (3' terminal)) is 0.612 ± 0.01 and the background-corrected fluorescence (dye: Cy5 (3' terminal)) amounted to 0.444 ± 0.027.
On the same counts, the results for “TTTTTTCAGCATCATGCTGCTTTTTTTTTTTTTTTGTGAA [AAGTG]” are 0.607 ± 0.023 and 0.511 ± 0.032.
